Laboratory results published in publication PMC12511625.

Key:
[1] = target: S. venezuelae ParB (wild type, recombinant, cleaved from GST) (S. venezuelae); conditions: scale: μmol of phosphate released by 1 μmol of ParB in one hour
[2] = target: S. venezuelae ParB_(SMC-) variant (TDR 132-134 to AAT, D164R) (S. venezuelae); conditions: scale: μmol of phosphate released by 1 μmol of ParB in one hour

**Q.** For “FLAG-SMC of S. venezuelae (natural protein)”, which CTP hydrolysis (phosphate released) by ParB (2 μM) with parS-containing plasmid DNA and FLAG-SMC (0.02 μM, 1:100 molar ratio); without FLAG-SMC 65.1 +/− 2.9 [1] is on record?
**A.** 35.2

**Q.** What about the CTP hydrolysis (phosphate released) by ParB (SMC-) (2 μM) with parS-containing plasmid DNA and FLAG-SMC (1:100 molar ratio); without FLAG-SMC 46.7 +/− 3.9; said to be similar with and without SMC [2] of the same substance?
**A.** 39
